From the supplement of paper PMC9112550, “Optimization of the antimicrobial peptide Bac7 by deep mutational scanning” (BMC Biology, 2022) come the findings set out here.

The subject of the series is Escherichia coli TOP10. Briefly: shrunken log2 fold change of peptide-encoding DNA abundance (4.5 h post-induction vs induction); higher = less antimicrobial activity (less host growth inhibition). As to conditions: time post-induction: 4.5 h; library: site-saturation at positions 5, 18, 19, 20.
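Note: peptides expressed intracellularly from a pBAD plasmid library in pooled LB shake-flask culture, induced with 0.3% L-arabinose, DNA abundance read by NGS, three biological replicates, DESeq2 with apeglm shrinkage.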

For the sequence RRIRHRPPRLPRPRPRPSNTPRP, the “shrunken log2 fold change” value is -0.278.

For the sequence RRIRIRPPRLPRPRPRPQNDPRP, the “shrunken log2 fold change” value is -0.296. The figure for RRIRYRPPRLPRPRPRPFNQPRP is -0.0309. For the sequence RRIRYRPPRLPRPRPRPHTKPRP, the “shrunken log2 fold change” value is -0.149. The figure for RRIRMRPPRLPRPRPRPMSQPRP is 0.0528; for RRIRGRPPRLPRPRPRPFNIPRP it is -0.199. The figure for RRIRTRPPRLPRPRPRPWYNPRP is -0.325; for RRIRCRPPRLPRPRPRPCYKPRP it is 0.0187; for RRIRGRPPRLPRPRPRPAFWPRP it is 0.71. The figure for RRIRTRPPRLPRPRPRPLYSPRP is -0.575; for RRIRERPPRLPRPRPRPRWHPRP it is 0.0135; for RRIRHRPPRLPRPRPRPHSMPRP it is -0.337.

On to RRIRGRPPRLPRPRPRPYNFPRP, for which the “shrunken log2 fold change” value was -0.35. The figure for RRIRNRPPRLPRPRPRPERKPRP is -0.016; for RRIRLRPPRLPRPRPRPMFYPRP it is -0.361. The figure for RRIRWRPPRLPRPRPRPVNWPRP is 0.537; for RRIRIRPPRLPRPRPRPNSFPRP it is -0.391; for RRIRARPPRLPRPRPRPNSNPRP it is -0.0294. On to RRIRCRPPRLPRPRPRPRCNPRP, for which the “shrunken log2 fold change” value was found to be 0.00442.

As to RRIRCRPPRLPRPRPRPCHPPRP, the “shrunken log2 fold change” value was -0.348. The figure for RRIRVRPPRLPRPRPRPWVWPRP is 0.292; for RRIRIRPPRLPRPRPRPIAKPRP it is -0.0645; for RRIRIRPPRLPRPRPRPTTGPRP it is -0.228. In the case of RRIRLRPPRLPRPRPRPTANPRP, the “shrunken log2 fold change” value was found to be 0.329. In the case of RRIRRRPPRLPRPRPRPFIAPRP, the “shrunken log2 fold change” value is -0.253. RRIRQRPPRLPRPRPRPAGGPRP: the “shrunken log2 fold change” value stood at 0.204. For the sequence RRIRMRPPRLPRPRPRPEWNPRP, the “shrunken log2 fold change” value was 0.406. The figure for RRIRARPPRLPRPRPRPQFVPRP is -0.0892. The figure for RRIRNRPPRLPRPRPRPFPSPRP is -0.0692; for RRIRMRPPRLPRPRPRPAKIPRP it is 0.211. The figure for RRIRKRPPRLPRPRPRPNFYPRP is 0.0337; for RRIRDRPPRLPRPRPRPIEFPRP it is 0.144. RRIRTRPPRLPRPRPRPGSNPRP: the “shrunken log2 fold change” value was -0.415.

Consider RRIRARPPRLPRPRPRPVERPRP, for which the “shrunken log2 fold change” value is 0.732.

In the case of RRIRARPPRLPRPRPRPSFMPRP, the “shrunken log2 fold change” value is 0.0496. The figure for RRIRLRPPRLPRPRPRPMEMPRP is -0.0251; for RRIRHRPPRLPRPRPRPGGDPRP it is 0.0994. As for RRIRARPPRLPRPRPRPDMPPRP, the “shrunken log2 fold change” value was 0.0755. As to RRIRWRPPRLPRPRPRPFAMPRP, the “shrunken log2 fold change” value was -0.148.

Regarding RRIRMRPPRLPRPRPRPLQYPRP, the “shrunken log2 fold change” value is -0.106.

Consider RRIRCRPPRLPRPRPRPVKHPRP, for which the “shrunken log2 fold change” value was -0.263. The figure for RRIRMRPPRLPRPRPRPNTEPRP is -0.0533. In the case of RRIRIRPPRLPRPRPRPQFEPRP, the “shrunken log2 fold change” value is -0.0601.

Consider RRIRQRPPRLPRPRPRPGCKPRP, for which the “shrunken log2 fold change” value is -0.0467. The figure for RRIRERPPRLPRPRPRPHMCPRP is -0.0653; for RRIRGRPPRLPRPRPRPNFGPRP it is 0.128.

With RRIRDRPPRLPRPRPRPDKCPRP, the “shrunken log2 fold change” value turned out to be 0.089. The figure for RRIRDRPPRLPRPRPRPKVPPRP is -0.00145.

In the case of RRIRRRPPRLPRPRPRPYHNPRP, the “shrunken log2 fold change” value was -0.819.

As for RRIRCRPPRLPRPRPRPRFHPRP, the “shrunken log2 fold change” value was -0.393. The figure for RRIRLRPPRLPRPRPRPHEIPRP is -0.298. Turning to RRIRKRPPRLPRPRPRPEDDPRP, the “shrunken log2 fold change” value worked out at 0.00862.

Take RRIRDRPPRLPRPRPRPCWIPRP: the “shrunken log2 fold change” value was -0.255. The figure for RRIRCRPPRLPRPRPRPKMQPRP is 0.103; for RRIRCRPPRLPRPRPRPMWSPRP it is -0.147; for RRIRMRPPRLPRPRPRPQSIPRP it is -0.0553.

Turning to RRIRQRPPRLPRPRPRPTVRPRP, the “shrunken log2 fold change” value worked out at 0.0397.

With RRIRVRPPRLPRPRPRPCLAPRP, the “shrunken log2 fold change” value was -0.0591. Consider RRIRARPPRLPRPRPRPVCLPRP, for which the “shrunken log2 fold change” value turned out to be 0.138. The figure for RRIRLRPPRLPRPRPRPARMPRP is 0.386. The figure for RRIRCRPPRLPRPRPRPMVFPRP is -0.0164; for RRIRFRPPRLPRPRPRPRSKPRP it is 0.0303; for RRIRPRPPRLPRPRPRPLMKPRP it is -0.181.

In the case of RRIRKRPPRLPRPRPRPPRVPRP, the “shrunken log2 fold change” value is 0.648. The figure for RRIRQRPPRLPRPRPRPYCFPRP is -1; for RRIRCRPPRLPRPRPRPHPHPRP it is -0.0639; for RRIRARPPRLPRPRPRPPIKPRP it is -0.0438.

Turning to RRIRCRPPRLPRPRPRPMKVPRP, the “shrunken log2 fold change” value is -0.126. The figure for RRIRCRPPRLPRPRPRPKMHPRP is -0.121. The figure for RRIRIRPPRLPRPRPRPLPAPRP is 0.041; for RRIRSRPPRLPRPRPRPAYTPRP it is 0.0457; for RRIRHRPPRLPRPRPRPNDHPRP it is -0.499. The figure for RRIRVRPPRLPRPRPRPYSGPRP is -0.00858; for RRIRFRPPRLPRPRPRPDSPPRP it is -0.168. As to RRIRHRPPRLPRPRPRPAIEPRP, the “shrunken log2 fold change” value came to 0.0588. The figure for RRIRERPPRLPRPRPRPCDKPRP is 0.0148; for RRIRARPPRLPRPRPRPELKPRP it is 0.488. The figure for RRIRQRPPRLPRPRPRPECSPRP is -0.0561; for RRIRTRPPRLPRPRPRPSNVPRP it is -0.337; for RRIRSRPPRLPRPRPRPIGGPRP it is -0.0412. The figure for RRIRRRPPRLPRPRPRPPCGPRP is 0.324; for RRIRVRPPRLPRPRPRPHFWPRP it is -0.158; for RRIRLRPPRLPRPRPRPADGPRP it is -0.082. Take RRIRKRPPRLPRPRPRPAGEPRP: the “shrunken log2 fold change” value worked out at 0.0321.

As for RRIRSRPPRLPRPRPRPDRHPRP, the “shrunken log2 fold change” value was -0.0205. The figure for RRIRLRPPRLPRPRPRPDWAPRP is 0.0283; for RRIRDRPPRLPRPRPRPTYQPRP it is -0.0238. The figure for RRIRKRPPRLPRPRPRPRNNPRP is 0.198; for RRIRTRPPRLPRPRPRPCSIPRP it is -0.472.

As for RRIRDRPPRLPRPRPRPIHHPRP, the “shrunken log2 fold change” value is -0.649. The figure for RRIRKRPPRLPRPRPRPRFAPRP is 0.614; for RRIRIRPPRLPRPRPRPDCKPRP it is -0.477; for RRIRARPPRLPRPRPRPSRSPRP it is 0.349. In the case of RRIRCRPPRLPRPRPRPLNSPRP, the “shrunken log2 fold change” value was -0.605. The figure for RRIRMRPPRLPRPRPRPIIIPRP is -0.166; for RRIRPRPPRLPRPRPRPGQDPRP it is -0.0902. As to RRIRPRPPRLPRPRPRPIFRPRP, the “shrunken log2 fold change” value was -0.0135. The figure for RRIRQRPPRLPRPRPRPWHIPRP is -0.00133; for RRIRDRPPRLPRPRPRPTSDPRP it is 0.347. As for RRIRIRPPRLPRPRPRPAPQPRP, the “shrunken log2 fold change” value came to 0.363.

Take RRIRARPPRLPRPRPRPDQKPRP: the “shrunken log2 fold change” value amounted to 0.442. The figure for RRIRPRPPRLPRPRPRPCFGPRP is 1.01; for RRIRLRPPRLPRPRPRPHEQPRP it is 0.00509. The figure for RRIRCRPPRLPRPRPRPLFAPRP is 0.0307. The figure for RRIRLRPPRLPRPRPRPPHLPRP is -0.0637; for RRIRPRPPRLPRPRPRPMIVPRP it is -1.14; for RRIRRRPPRLPRPRPRPIGKPRP it is -0.0155. As for RRIRNRPPRLPRPRPRPTESPRP, the “shrunken log2 fold change” value was -0.0455. The figure for RRIRVRPPRLPRPRPRPWVTPRP is -0.375; for RRIRGRPPRLPRPRPRPWGIPRP it is 0.0344. The figure for RRIRGRPPRLPRPRPRPMKDPRP is 0.55; for RRIRFRPPRLPRPRPRPPARPRP it is 0.694.

In the case of RRIRLRPPRLPRPRPRPWKFPRP, the “shrunken log2 fold change” value was -0.00232. As for RRIRERPPRLPRPRPRPMPDPRP, the “shrunken log2 fold change” value was found to be 0.17. The figure for RRIRIRPPRLPRPRPRPEDAPRP is -0.0131; for RRIRRRPPRLPRPRPRPGNCPRP it is 0.177; for RRIRTRPPRLPRPRPRPNCVPRP it is 0.00481.

As for RRIRCRPPRLPRPRPRPLIHPRP, the “shrunken log2 fold change” value is -0.842. For RRIRARPPRLPRPRPRPHVVPRP, the “shrunken log2 fold change” value was -0.288. Turning to RRIRKRPPRLPRPRPRPPQLPRP, the “shrunken log2 fold change” value came out at 0.488. The figure for RRIRKRPPRLPRPRPRPQMRPRP is 0.292; for RRIRCRPPRLPRPRPRPGQSPRP it is 0.0538; for RRIRSRPPRLPRPRPRPSCMPRP it is -0.129. The figure for RRIRWRPPRLPRPRPRPLWCPRP is 0.149.

Regarding RRIRMRPPRLPRPRPRPWAFPRP, the “shrunken log2 fold change” value was -0.121.
